Experimental data reported in patent US20210180067, “NUCLEIC ACID APTAMERS” (UNIVERSITY OF IOWA RESEARCH FOUNDATION, published 2021).

What was measured:
[1] = molecular target: T1, CD25 (IL-2 receptor alpha, IL2RA) (Homo sapiens, UniProt P01589 P01589:22-240); assay: pulldown; 100 nM RNA, CD25 Dynabeads, 2 mM CaCl2, 37 C, RT-qPCR; prefers unoccupied CD25; conditions: tags: His-tag; Thermo Fisher
Description: (§1) Aptamer binding to recombinant CD25 protein or CD25-IL2 receptor-ligand complex-coated Dynabeads was measured as follows. Streptavidin-coated Dynabeads, antibody-coupling kit, and Dynabeads for His-tagged protein binding were obtained from Thermo Fisher. Histidine-tagged recombinant human CD25 (Thermo Fisher, USA) was coated onto His-tag-binding Dynabeads (Thermo Fisher, USA). Protein coated beads were blocked with binding buffer [HEPES-buffered saline with 2 mM CaCl2) containing 0.1 mg/ml BSA and tRNA. In cases where CD25-IL2 complexes were tested, equimolar amounts of IL2 was incubated with CD25-coated beads for 30 minutes at 37 degrees Celsius and the unbound IL2 was washed away. Folded aptamers were then incubated with CD25- or CD25-IL2-coated beads at a concentration of 100 nM for 30 minutes at 37 degrees Celsius under rotation. Beads were then washed thrice with binding buffer at 37 degrees Celsius. Bound RNA aptamers were extracted using Trizol spiked with M12-23 reference control and were quantified using SyBR green-based RT-qPCR assay. The bead-bound SEL2 aptamers were normalized to M12-23 reference control before further analysis. The values obtained for Treg-binding aptamers were normalized to the negative control aptamer, C-248, and plotted. Nucleotides corresponding to the N20 region are underlined and italicized.

[2] = molecular target: T1, CD25 (IL-2 receptor alpha, IL2RA); assay: pulldown; negative control used for normalisation; 2 mM CaCl2, 37 C, RT-qPCR; conditions: tags: His-tag; Thermo Fisher
Description: as §1

[3] = molecular target: T2, CD25 (IL2RA)-IL2 complex (Homo sapiens, UniProt P01589;P60568 P01589:22-240,P60568:21-153); assay: pulldown; binding increased vs unoccupied CD25; 2 mM CaCl2, 37 C, RT-qPCR; correlates with IL2 occupancy (R2=0.724); conditions: tags: CD25 His-tagged, Thermo Fisher
T2 sequence (P01589 22-240, chain 1 of 2): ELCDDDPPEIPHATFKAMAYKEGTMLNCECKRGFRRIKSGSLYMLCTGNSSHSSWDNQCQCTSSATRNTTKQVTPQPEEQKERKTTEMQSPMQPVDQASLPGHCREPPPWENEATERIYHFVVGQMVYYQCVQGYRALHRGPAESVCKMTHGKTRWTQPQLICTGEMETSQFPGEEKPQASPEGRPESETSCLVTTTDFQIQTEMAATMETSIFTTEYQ
T2 sequence (P60568 21-153, chain 2 of 2): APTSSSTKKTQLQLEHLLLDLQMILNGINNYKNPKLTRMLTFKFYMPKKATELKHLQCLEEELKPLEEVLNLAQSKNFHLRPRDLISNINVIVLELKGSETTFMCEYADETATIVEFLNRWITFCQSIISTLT
Description: as §1

[4] = molecular target: T1, CD25 (IL-2 receptor alpha, IL2RA); assay: pulldown; 100 nM RNA, CD25 Dynabeads, HEPES saline 2 mM CaCl2, BSA, tRNA, 37 C, RT-qPCR; greater than C-248; conditions: tags: His-tag; Thermo Fisher
Description: as §1

[5] = molecular target: T2, CD25 (IL2RA)-IL2 complex; assay: pulldown; similar binding to unoccupied CD25 and complex; 2 mM CaCl2, 37 C, RT-qPCR; conditions: tags: CD25 His-tagged, Thermo Fisher
Description: as §1

[6] = molecular target: T1, CD25 (IL-2 receptor alpha, IL2RA); assay: pulldown; 100 nM RNA, CD25 Dynabeads, 2 mM CaCl2, 37 C, RT-qPCR; greater than C-248; conditions: tags: His-tag; Thermo Fisher
Description: as §1

[7] = molecular target: T2, CD25 (IL2RA)-IL2 complex; assay: pulldown; binding increased vs unoccupied CD25; 2 mM CaCl2, 37 C, RT-qPCR; correlates with IL2 occupancy (R2=0.661); conditions: tags: CD25 His-tagged, Thermo Fisher
Description: as §1

T1 sequence (P01589 22-240, one chain of several): as the sequence (P01589 22-240, chain 1 of 2) above

B1: Tr-8 (ssRNA)
RNA: GGGAGGACGAUGCGGGCCGUUGUUGUGUGCCGCCCCAGACGACUCGCCCGA
modifications: 2'-F C and U
B1: binds [1].

B2: C-248 (ssRNA)
RNA: GGGAGGACGAUGCGGCACACCGAAAUGUCCCGACUCAGACGACUCGCCCGA
modifications: 2'-F C and U
B2: no binding [2].

B3: Tr-1 (ssRNA)
RNA: GGGAGGACGAUGCGGUCCUGUCGUCUGUUCGUCCCCAGACGACUCGCCCGA
modifications: 2'-F C and U
B3: binds [3]; binds [4].

B4: Tr-6 (ssRNA)
RNA: GGGAGGACGAUGCGGCGUUUCCUCUGGUUCGUCCCCAGACGACUCGCCCGA
modifications: 2'-F C and U
B4: binds [1].

B5: Tr-11 (ssRNA)
RNA: GGGAGGACGAUGCGGAUUCUGGUUACUGGCCGCCCCAGACGACUCGCCCGA
modifications: 2'-F C and U
B5: binds [5]; binds [6].

B6: Tr-7 (ssRNA)
RNA: GGGAGGACGAUGCGGUGAGUCGUUCCCUUCGUCCCCAGACGACUCGCCCGA
modifications: 2'-F C and U
B6: binds [6]; binds [7].
